Measurements from publication PMC10702427, “Effects of Dimerization on the Deacylase Activities of Human SIRT2” (Biochemistry, 2023).
Changes are numbered by the printed parent chain. Names may count otherwise. “And” between values parts separate entries of the source, which are not always exact repeats. Equal entries are not always repeated. Where two headings read alike, the source gives them in different places. Blank lines part the entries; values can stand above or below the molecule they belong to. Primed or numbered codes have the meaning given here. Where no end group is shown, it is not given here. The star is where a group is joined. Myristoyl = CCCCCCCCCCCCCC(=O)*; PEG4′ = PEG4 linker

T1: SIRT2 catalytic domain (SIRT2^cat), amino acids 34–356 (human, UniProt Q8IXJ6-1 34-356)
T1 chain: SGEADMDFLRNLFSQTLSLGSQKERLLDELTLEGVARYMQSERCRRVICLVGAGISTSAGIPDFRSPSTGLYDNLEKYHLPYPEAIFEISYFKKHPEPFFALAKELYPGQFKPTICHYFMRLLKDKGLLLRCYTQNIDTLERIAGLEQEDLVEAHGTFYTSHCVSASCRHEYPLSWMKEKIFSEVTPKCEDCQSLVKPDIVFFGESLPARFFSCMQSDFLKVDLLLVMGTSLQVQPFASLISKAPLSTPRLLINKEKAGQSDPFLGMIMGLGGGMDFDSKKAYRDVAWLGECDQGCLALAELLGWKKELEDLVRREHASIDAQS

T2: full-length SIRT2 (amino acids 1–389) (human), Q8IXJ6
T2 chain: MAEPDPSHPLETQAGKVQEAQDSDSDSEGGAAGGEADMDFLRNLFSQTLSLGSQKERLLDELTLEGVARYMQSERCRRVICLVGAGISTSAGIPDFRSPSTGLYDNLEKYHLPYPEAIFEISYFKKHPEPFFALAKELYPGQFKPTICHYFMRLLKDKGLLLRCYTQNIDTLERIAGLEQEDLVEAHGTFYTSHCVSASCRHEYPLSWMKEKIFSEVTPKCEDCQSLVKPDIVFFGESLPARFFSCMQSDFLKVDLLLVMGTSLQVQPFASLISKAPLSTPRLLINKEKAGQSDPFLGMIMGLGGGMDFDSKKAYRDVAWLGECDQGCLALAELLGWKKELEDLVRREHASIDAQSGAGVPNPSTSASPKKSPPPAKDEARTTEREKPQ

B1: SIRT2^cat(Q142A/E340A) (domain or fragment, human)
chain: T1 chain with Q110A, E308A
B2: SIRT2cat catalytic domain (protein)
chain: ERLLDELTLEGVARYMQSERCRRVICLVGAGISTSAGIPDFRSPSTGLYDNLEKYHLPYPEAIFEISYFKKHPEPFFALAKELYPGQFKPTICHYFMRLLKDKGLLLRCYTQNIDTLERIAGLEQEDLVEAHGTFYTSHCVSASCRHEYPLSWMKEKIFSEVTPKCEDCQSLVKPDIVFFGESLPARFFSCMQSDFLKVDLLLVMGTSLQVQPFASLISKAPLSTPRLLINKEKAGQSDPFLGMIMGLGGGMDFDSKKAYRDVAWLGECDQGCLALAELLGWKKELEDLVRREHASIDAQS
B3: myristoyl-H4K16 peptide (13mer) (peptide)
peptide: KGLGKGGAK(Myristoyl)RHRK
notes: also called myristoyl peptide; myristoylated peptide; source: synthetic peptide (New England Peptide)
B4: full-length SIRT2 (amino acids 1–389), Q8IXJ6-1 1-389 (enzyme)
chain: T2 chain

Assays:
[1] = target: SIRT2 catalytic domain (SIRT2^cat), amino acids 34–356 (human) (UniProt Q8IXJ6); assay: cross-linking; 1 mM Bis(NHS)-PEG5, 10 μM SIRT2 protein, room temperature 1 h, PBS with 1 mM DTT, with or without 12 μM acylated H4K16 peptide, ADP-ribose or the 286-313 peptide; SDS-PAGE, Coomassie bands quantified
[2] = target: SIRT2 catalytic domain (SIRT2^cat), amino acids 34–356 (human) (UniProt Q8IXJ6); assay: cross-linking; Bis(NHS)-PEG5, 10 μM SIRT2^cat pre-equilibrated with SIRT2 inhibitors, 50 μL, 2% DMSO; SDS-PAGE, Coomassie bands quantified
[3] = target: SIRT2 catalytic domain (SIRT2^cat), amino acids 34–356 (human) (UniProt Q8IXJ6); assay: SEC; analytical SEC, Bio-Rad Enrich SEC 650 column, PBS with 1 mM DTT, 100 μL injected (SIRT2^cat 2-80 μM; full-length SIRT2 56 μM); Kd of dimer to monomers estimated from the peak concentrations at elution, averaged over all runs with two peaks
[4] = target: SIRT2 catalytic domain (SIRT2^cat), amino acids 34–356 (human) (UniProt Q8IXJ6); assay: cross-linking; 1 mM Bis(NHS)-PEG5, 10 μM SIRT2 protein, room temperature 1 h, PBS with 1 mM DTT, with or without 12 μM acylated H4K16 peptide, ADP-ribose or the 286-313 peptide; SDS-PAGE, Coomassie bands quantified; remark: listed apart in the source
[5] = target: T1, SIRT2 catalytic domain (SIRT2^cat), …
[6] = target: the molecule itself; assay: cell-based or functional assay
[7] = target: myristoyl-H4K16 peptide H4K16 peptide (Homo sapiens, UniProt P62805, myristoylated K16); assay: gel shift assay
[8] = target: B1; assay: cross-linking; 1 mM Bis(NHS)-PEG5, 10 μM SIRT2 protein, room temperature 1 h, PBS with 1 mM DTT, with or without 12 μM acylated H4K16 peptide, ADP-ribose or the 286-313 peptide; SDS-PAGE, Coomassie bands quantified; settings: both partners purified
[9] = target: T2, full-length SIRT2 (amino acids 1–389) …; assay: as above; settings: remark: other sources report otherwise
[10] = target: T2, full-length SIRT2 (amino acids 1–389) …; assay: SEC; analytical SEC, Bio-Rad Enrich SEC 650 column, PBS with 1 mM DTT, 100 μL injected (SIRT2^cat 2-80 μM; full-length SIRT2 56 μM); Kd of dimer to monomers estimated from the peak concentrations at elution, averaged over all runs with two peaks; settings: remark: other sources report otherwise

percent of the protein cross-linked as dimer [1]: 47.4% | percent of the protein cross-linked as dimer, no inhibitor [2]: 49.9% and 50.6% | percent of the protein cross-linked as dimer, with 20 μM ascorbyl palmitate [2]: 32.1% | percent of the protein cross-linked as dimer, with 200 μM ascorbyl palmitate [2]: 31.8% | Kd [3]: 0.121 µM | stoichiometry N [3]: 2 | percent of the protein cross-linked as dimer [4]: 50.8% | percent of the protein cross-linked as trimer [4]: 6% | percent of the protein migrating as monomer after cross-linking [4]: 43.2%
Molecule: SIRT2 catalytic domain (SIRT2^cat), amino acids 34–356 (from UniProt Q8IXJ6-1 34-356) (domain or fragment)

Kd [5]: 2 µM
Molecule: {FAM-PEG4′}-KGLGKGGAK(Myristoyl)RHRK-OH [FAM-myristoyl-H4K16 peptide]

Molecule: B1
fold decrease in de-4-oxononanoylase catalytic efficiency (kcat/Km) of the mutant against wild-type SIRT2^cat [6]: 4 fold | fold decrease in deacetylase catalytic efficiency (kcat/Km, acetyl-H4K16 peptide, 1 mM NAD+) of the mutant against wild-type SIRT2^cat [6]: 6 fold

Molecule: B2
Kd [7]: ~1.5 µM

Molecule: B3
binding result [8]: binds | Kd [5]: 1 µM

Molecule: B4
percent of the protein oligomeric after cross-linking [9]: 50% | stoichiometry N [10]: 2
